In patent US20160136234A1:

Legend:
Experiment in all cases: cell-based or functional assay
AMPKα1 (h) (human) = AMPKα1 (h) (human) (UniProt Q13131)
Abl (H396P) (h) (human) = Abl (H396P) (h) (human) (UniProt P00519)
Abl(T315I) (h) (human) = Abl(T315I) (h) (human) (UniProt P00519)
CK2 (h) (human) = CK2 (h) (human) (UniProt P68400)
CaMKIV (h) (human) = CaMKIV (h) (human) (UniProt Q16566)
[1] = target: Calcium/Calmodulin-Dependent Protein Kinase I (human) (UniProt Q14012)
DAPK1 (h) (human) = DAPK1 (h) (human) (UniProt P53355)
EphB1 (h) (human) = EphB1 (h) (human) (UniProt P54762)
EphB2 (h) (human) = EphB2 (h) (human) (UniProt P29323)
Flt4 (h) (human) = Flt4 (h) (human) (UniProt P35916)
JNK2α2 (h) (human) = JNK2α2 (h) (human) (UniProt P45984)
[2] = target: Lck (h) activated (human) (UniProt P06239)
MSK2 (h) (human) = MSK2 (h) (human) (UniProt O75676)
NEK3 (h) (human) = target: T1, NEK3 (h) (human) (UniProt P51956)
T1 sequence (looked up): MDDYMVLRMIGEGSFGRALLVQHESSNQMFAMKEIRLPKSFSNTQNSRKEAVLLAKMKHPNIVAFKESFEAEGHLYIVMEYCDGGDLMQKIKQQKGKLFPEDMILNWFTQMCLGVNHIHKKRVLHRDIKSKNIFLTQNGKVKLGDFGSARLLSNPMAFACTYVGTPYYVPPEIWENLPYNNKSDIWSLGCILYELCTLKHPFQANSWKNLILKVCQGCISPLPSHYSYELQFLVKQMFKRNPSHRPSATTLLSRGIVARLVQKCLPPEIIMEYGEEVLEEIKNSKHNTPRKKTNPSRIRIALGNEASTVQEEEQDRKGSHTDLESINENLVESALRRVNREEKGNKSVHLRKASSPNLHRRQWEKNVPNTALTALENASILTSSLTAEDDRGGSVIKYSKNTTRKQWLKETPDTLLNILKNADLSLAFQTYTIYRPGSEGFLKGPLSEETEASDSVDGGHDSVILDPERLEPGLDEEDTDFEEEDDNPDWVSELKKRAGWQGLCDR

PASK (h) (human) = PASK (h) (human) (UniProt Q96RG2)
PKCµ (h) (human) = target: T2, PKCµ (h) (human) (UniProt Q15139)
T2 sequence (looked up): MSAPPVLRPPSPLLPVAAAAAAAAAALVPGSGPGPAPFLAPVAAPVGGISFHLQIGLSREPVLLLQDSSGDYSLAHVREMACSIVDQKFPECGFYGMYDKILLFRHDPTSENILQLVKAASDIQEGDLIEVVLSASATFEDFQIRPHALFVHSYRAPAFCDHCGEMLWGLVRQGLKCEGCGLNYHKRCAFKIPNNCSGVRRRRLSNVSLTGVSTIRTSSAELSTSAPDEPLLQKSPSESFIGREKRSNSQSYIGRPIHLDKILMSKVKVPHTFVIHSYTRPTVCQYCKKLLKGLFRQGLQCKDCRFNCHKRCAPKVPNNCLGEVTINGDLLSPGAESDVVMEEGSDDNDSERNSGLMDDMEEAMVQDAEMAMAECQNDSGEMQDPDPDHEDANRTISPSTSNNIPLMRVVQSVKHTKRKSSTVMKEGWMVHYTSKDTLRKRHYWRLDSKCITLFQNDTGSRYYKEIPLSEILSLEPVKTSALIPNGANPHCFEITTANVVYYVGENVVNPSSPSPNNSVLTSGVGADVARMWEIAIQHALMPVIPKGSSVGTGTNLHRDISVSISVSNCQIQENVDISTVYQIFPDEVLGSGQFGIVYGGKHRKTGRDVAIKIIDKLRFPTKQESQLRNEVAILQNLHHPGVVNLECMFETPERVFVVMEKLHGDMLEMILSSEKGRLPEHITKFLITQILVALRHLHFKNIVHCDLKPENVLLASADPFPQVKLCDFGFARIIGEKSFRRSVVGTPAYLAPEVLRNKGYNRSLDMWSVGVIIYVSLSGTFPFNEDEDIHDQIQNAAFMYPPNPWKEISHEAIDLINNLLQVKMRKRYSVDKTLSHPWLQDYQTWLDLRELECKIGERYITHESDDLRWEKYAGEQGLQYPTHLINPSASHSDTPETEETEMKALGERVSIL

PRK2 (h) (human) = PRK2 (h) (human) (UniProt Q16513)
Rsk1 (h) (human) = Rsk1 (h) (human) (UniProt Q15418)
Src(T341M) (h) (human) = Src(T341M) (h) (human) (UniProt P12931)
TSSK1 (h) (human) = target: T3, TSSK1 (h) (human) (UniProt Q9BXA7)
T3 sequence (looked up): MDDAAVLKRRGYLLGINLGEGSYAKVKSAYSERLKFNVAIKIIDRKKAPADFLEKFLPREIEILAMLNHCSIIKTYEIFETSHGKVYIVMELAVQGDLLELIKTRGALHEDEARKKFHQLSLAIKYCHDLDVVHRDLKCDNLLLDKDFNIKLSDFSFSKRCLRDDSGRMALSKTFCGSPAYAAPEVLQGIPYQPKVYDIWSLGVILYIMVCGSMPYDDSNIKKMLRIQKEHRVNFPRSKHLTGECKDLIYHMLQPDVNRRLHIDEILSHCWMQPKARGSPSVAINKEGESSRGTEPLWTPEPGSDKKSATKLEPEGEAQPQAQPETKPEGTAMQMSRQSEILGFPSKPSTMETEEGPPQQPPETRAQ

Sequence of Rsk1 (h) (human) (Q15418 whole entry): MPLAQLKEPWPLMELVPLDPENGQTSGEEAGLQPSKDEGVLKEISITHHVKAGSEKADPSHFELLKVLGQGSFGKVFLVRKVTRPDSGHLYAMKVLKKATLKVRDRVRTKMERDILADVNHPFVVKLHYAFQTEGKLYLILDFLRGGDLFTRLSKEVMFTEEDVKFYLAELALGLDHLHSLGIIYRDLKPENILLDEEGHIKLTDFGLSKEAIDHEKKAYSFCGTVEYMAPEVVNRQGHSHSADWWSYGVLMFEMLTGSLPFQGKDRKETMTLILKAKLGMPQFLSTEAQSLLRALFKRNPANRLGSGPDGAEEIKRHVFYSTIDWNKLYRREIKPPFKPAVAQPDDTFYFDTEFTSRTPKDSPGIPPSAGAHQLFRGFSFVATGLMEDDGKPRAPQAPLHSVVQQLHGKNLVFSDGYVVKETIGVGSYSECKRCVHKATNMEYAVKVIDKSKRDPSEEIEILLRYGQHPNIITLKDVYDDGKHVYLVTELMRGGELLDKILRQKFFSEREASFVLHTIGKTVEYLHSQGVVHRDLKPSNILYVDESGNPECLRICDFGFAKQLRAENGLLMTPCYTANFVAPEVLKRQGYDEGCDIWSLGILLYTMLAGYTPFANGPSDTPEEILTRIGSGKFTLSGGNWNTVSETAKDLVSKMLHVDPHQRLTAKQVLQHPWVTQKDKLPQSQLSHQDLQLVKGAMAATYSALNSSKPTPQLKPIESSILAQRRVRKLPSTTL
Sequence of EphB2 (h) (human) (P29323 565-986 limits assumed): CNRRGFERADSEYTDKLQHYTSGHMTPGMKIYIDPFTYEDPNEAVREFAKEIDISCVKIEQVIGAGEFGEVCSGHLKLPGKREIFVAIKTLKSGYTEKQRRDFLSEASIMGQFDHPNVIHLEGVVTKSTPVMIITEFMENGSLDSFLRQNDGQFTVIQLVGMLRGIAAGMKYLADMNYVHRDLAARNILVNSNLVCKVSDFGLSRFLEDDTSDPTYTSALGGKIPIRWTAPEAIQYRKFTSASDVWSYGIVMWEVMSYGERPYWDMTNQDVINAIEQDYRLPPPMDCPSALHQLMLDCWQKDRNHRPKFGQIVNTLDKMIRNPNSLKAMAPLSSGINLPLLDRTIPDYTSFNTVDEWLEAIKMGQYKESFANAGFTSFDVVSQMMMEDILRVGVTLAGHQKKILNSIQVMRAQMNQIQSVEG
Sequence of Flt4 (h) (human) (P35916 800-1363 limits assumed): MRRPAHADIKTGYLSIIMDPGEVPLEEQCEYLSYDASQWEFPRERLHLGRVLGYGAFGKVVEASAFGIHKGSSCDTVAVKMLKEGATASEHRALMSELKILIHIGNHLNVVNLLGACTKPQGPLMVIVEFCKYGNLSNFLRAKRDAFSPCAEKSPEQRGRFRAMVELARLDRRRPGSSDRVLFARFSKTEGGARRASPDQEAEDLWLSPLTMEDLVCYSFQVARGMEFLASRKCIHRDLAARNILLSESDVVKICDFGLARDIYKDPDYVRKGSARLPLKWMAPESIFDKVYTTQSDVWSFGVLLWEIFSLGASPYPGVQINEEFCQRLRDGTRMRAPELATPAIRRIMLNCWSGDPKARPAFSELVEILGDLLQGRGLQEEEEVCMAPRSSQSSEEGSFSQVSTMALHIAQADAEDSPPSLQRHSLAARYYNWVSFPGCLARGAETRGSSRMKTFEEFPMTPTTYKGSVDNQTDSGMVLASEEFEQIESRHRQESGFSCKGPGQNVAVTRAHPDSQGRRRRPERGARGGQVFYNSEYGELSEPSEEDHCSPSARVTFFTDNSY
Sequence of EphB1 (h) (human) (P54762 564-984 limits assumed): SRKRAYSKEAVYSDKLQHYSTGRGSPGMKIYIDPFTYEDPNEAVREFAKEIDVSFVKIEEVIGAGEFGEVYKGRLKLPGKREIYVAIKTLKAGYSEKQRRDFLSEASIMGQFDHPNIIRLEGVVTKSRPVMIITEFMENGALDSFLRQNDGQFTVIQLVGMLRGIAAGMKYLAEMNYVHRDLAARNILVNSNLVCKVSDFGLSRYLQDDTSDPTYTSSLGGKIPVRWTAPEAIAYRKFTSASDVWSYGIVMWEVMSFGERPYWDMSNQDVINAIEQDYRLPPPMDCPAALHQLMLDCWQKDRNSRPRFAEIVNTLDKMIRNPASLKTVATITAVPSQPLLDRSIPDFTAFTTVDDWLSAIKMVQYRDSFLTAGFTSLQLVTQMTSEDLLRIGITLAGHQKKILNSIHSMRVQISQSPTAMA
Sequence of Abl (H396P) (h) (human) (P00519 27-1130 H396P limits assumed): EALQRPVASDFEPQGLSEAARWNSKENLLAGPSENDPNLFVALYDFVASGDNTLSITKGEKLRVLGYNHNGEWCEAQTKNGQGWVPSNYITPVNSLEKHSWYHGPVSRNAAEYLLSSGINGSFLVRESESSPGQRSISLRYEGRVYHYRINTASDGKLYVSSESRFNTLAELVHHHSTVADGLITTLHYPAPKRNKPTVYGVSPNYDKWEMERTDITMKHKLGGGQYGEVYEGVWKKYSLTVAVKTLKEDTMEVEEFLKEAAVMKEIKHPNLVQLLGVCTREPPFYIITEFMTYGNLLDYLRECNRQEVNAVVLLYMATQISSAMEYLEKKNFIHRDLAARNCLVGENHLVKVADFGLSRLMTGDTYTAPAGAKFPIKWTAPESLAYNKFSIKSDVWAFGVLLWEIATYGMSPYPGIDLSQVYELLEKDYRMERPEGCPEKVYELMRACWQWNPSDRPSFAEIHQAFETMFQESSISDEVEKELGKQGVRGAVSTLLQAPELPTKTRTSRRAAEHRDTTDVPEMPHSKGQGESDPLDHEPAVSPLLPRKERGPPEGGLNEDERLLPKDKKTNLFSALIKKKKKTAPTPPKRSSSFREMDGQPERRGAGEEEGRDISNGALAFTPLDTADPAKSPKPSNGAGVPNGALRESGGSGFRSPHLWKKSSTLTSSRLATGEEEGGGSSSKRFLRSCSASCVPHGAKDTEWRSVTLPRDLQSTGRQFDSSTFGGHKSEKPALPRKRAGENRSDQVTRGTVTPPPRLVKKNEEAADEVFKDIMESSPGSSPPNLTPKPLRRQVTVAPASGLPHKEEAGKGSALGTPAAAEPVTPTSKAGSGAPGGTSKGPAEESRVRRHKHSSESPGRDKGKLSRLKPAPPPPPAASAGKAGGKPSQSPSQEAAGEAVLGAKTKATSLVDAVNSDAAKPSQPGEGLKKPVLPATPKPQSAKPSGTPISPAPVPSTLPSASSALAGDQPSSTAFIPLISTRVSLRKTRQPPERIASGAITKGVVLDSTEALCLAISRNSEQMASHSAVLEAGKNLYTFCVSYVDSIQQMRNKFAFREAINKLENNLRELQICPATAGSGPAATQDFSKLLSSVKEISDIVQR
Sequence of Abl(T315I) (h) (human) (P00519 27-1130 T315I limits assumed): as the sequence (P00519 27-1130 H396P limits assumed) above, with T289I, P370H counted along it

% activity at 100 µM (AMPKα1 (h) (human)): 71%
% activity at 100 µM (Abl (H396P) (h) (human)): 101%
% activity at 100 µM (Abl(T315I) (h) (human)): 97%
% activity at 100 µM (CK2 (h) (human)): 90%
% activity at 100 µM (CaMKIV (h) (human)): 17%
% activity at 100 µM [1]: 1%
% activity at 100 µM (DAPK1 (h) (human)): 46%
% activity at 100 µM (EphB1 (h) (human)): 44%
% activity at 100 µM (EphB2 (h) (human)): 18%
% activity at 100 µM (Flt4 (h) (human)): 83%
% activity at 100 µM (JNK2α2 (h) (human)): 98%
% activity at 100 µM [2]: 243%
% activity at 100 µM (MSK2 (h) (human)): 56%
% activity at 100 µM (NEK3 (h) (human)): 92%
% activity at 100 µM (PASK (h) (human)): 29%
% activity at 100 µM (PKCµ (h) (human)): 22%
% activity at 100 µM (PRK2 (h) (human)): 33%
% activity at 100 µM (Rsk1 (h) (human)): 46%
% activity at 100 µM (Src(T341M) (h) (human)): 70%
% activity at 100 µM (TSSK1 (h) (human)): 79%
Substance: MMI-0300 (peptide)
